Measurements taken from US6638508B2, “Modified avidin-type molecules as targeting agents for the liver and cells of the reticuloendothelial system” (Yeda Research and Development Co., Ltd., priority 1995, dated 2003).
Values belong to the compound of their own block, whether it stands above or below them.

Key:
[1] = Biodistribution of radioiodinated (125I) proteins, modified avidin-type molecules and their complexes after i.v. injection
Procedure: (ii) Animals. Age-matched CD-1 male mice (6-12 weeks old) were used in the experiments.
(iii) Biodistribution experiments. Groups of age-(6-12 weeks) and weight-matched male CD-1 mice were given intravenous (i.v.) injections into the lateral tail vein of radioiodinated ^125I-TNP- or ^125I-lactosylated-St (most biodistribution experiments were done in the range of 1-10 μg protein, 1 mCi of ^125I) into the lateral tail vein. At the time intervals indicated, blood samples were withdrawn from the tail, the mice were killed and their organs were dissected out, washed in PBS, blotted dry, weighed and counted for radioactivity. […] In subsequent experiments, CD-1 male mice were used and the results are presented as %/g or %/organ for single a single mouse or %/g ±SD or %/organ ±SD for pairs of mice unless otherwise stated.
(ii) Radioiodination. Proteins (0.2 mg/0.2ml) in 0.2M phosphate buffer pH 8.0 were reacted for 2 min with Na^125I (0.5 mCi for biodistribution experiment and 2.5mCi for external monitoring) in the presence of Chloramine-T (2mg/ml, 10 or 100 μl) in PBS for 2 min. The reaction, which facilitates attachment of the radioactive iodine to tyrosines, was terminated by the addition of sodium metabisulfite (2mg/ml, 10 or 100 μl) in PBS for 2 min followed by the addition of potassium iodide and carrier BSA (1 mg of each/0.1 ml PBS). The radioiodinated proteins ^125I-TNP-proteins were then chromatographed on Sephadex G-25 in PBS. TNP modification can take place before or after radioiodination. Avidin and TNP-Av, being low in tyrosine content (molar ratio of 4 tyrosine/avidin as compared to 24 tyrosine/streptavidin), were radiolabeled by ^125I-biotinyl-tyrosine as described below in Example 6.

[2] = Pt content in organs by flame atomic absorption spectrometry after CDDP complexed to BT1-CMdex-TNP-St or free CDDP; assay type: in vivo, mice; conditions: 2 h following injection of 300 μg free CDDP
Procedure: Pharmacokinetic studies confirmed the assumption of sustained release and prolonged maintenance of the complexed drug, as compared to the rapid elimination and inactivation of the free drug (Schechter et al., 1989a). Complexing CDDP to BT1-CMdex: BT1-CMdex (T-40) (0.15mM) was reacted with CDDP in DDW at a molar ratio of 1:60 for 24 h at 37° C. Following dialysis, the resulting BT1-CMdex-Pt contained 23-27 CDDP/CMdex. The complex BT1-CMdex-CDDP was reacted with TNP-St (at a ratio of 4:1) for targeting to the liver. […] To show the actual targeting of CDDP to the liver, CDDP was quantitatively determined in organs obtained at set time intervals following injection of 185 μg CDDP complexed to BT1-CMdex-TNP-St. Blood and organs were blended in an Ika Werk Ultra-Turrax blender (Jankel&Kunkel KG) in 5×Vol/tissue weight of 0.1N NaOH for 30 seconds. After centrifugation, the supernatants were filtered through Minisart 5 μm filter and the Pt content in the samples was determined by flame atomic absorption spectrometry (AA) at 265.9 nm in air-acetylene flame (in a Perkin Elmer 5100 PC spectrophotometer). Standards were prepared in a solution with matrix identical to that of the samples (i.e., normal tissues), to account for possible matrix interference. Results are expressed as %/g, i/organ or μg/organ in individual mice.

[3] = Toxicity studies: liver histology, body weight and survival; assay type: in vivo, CD-1 mice; conditions: dose of 300 μg, observed for 4 months
[4] = [3H] radioactivity in tissue extracts after BT1-CMdex-FUR ([3H]-uridine) alone or complexed to TNP-St; assay type: in vivo, mice; conditions: 1 and 4 h
Procedure: The actual targeting of FUR to the liver was carried out by a BT1-CMdex (T-40)-FUR product in which FUR was trace-labeled with [^3H] uridine. Mice were injected with BT1-CMdex-FUR-([^3H]-uridine) alone or complexed to TNP-St and at set time intervals blood was withdrawn, organs were dissected out and weighed. Tissue extracts were prepared by blending blood and organs in an Ika Werk Ultra-Turrax blender in 5× vol (ml)/tissue weight (g) of 0.1N NaOH for 30 sec. After centrifugation, 50 μl samples were counted for [^3H] radioactivity. Results are expressed as %/g tissue or %/organ. As shown in FIGS. 11A and 11B, levels of untargeted BT1-CMdex-FUR ([^3H]-uridine) were low. […] Radioactivity levels in other organs were in the range of 5%/g tissue or less than 1%/organ (FIG. 11B). It can be calculated that upon injection of 200μg TNP-St as a vehicle for BT1-CMdex-FUR, 25 μg of the drug can be accumulated per gram liver.

[5] = mouse, in vivo; cited from earlier work

Compound: DTPA-Gd substituted St: Gd-DTPA derivative of streptavidin
- liver accumulation ([1]; liver, 24 h, FIG. 16): did not accumulate in the liver

Compound: N.N.[Cl][Pt][Cl] [CDDP, cis-dichlorodiamine platinum (cisplatin)]
- Pt in liver or other organs [2]: essentially no Pt could be found

Compound: ^125I-BT-St: radioiodinated biotinyl-tyrosine complexed to unmodified streptavidin
- accumulation in whole kidney, % of injected dose of radioactivity/organ ([1]; mouse, in vivo): 10%

Compound: TNP-Av: avidin modified with 2,4,6-trinitrophenyl (TNP) groups
- accumulation in the liver ([1]; mouse, in vivo): 30-40 %/g
- accumulation in the spleen ([1]; mouse, in vivo): 10-15 %/g
- effect on body weight or survival [3]: did not seem to affect

Compound: TNP-NL-Av: TNP-modified NeutraLite Avidin, a deglycosylated form of avidin
- accumulation in the spleen ([1]; mouse, in vivo): up to 20 %/g

Compound: ^125I-BT-TNP-St: radioiodinated biotinyl-tyrosine complexed to TNP-streptavidin
- accumulation in whole liver, % of injected dose of radioactivity/organ ([1]; mouse, in vivo): 66-68%

- tissue levels of free drug [4]: around 1 %/g tissue
Compound: O=c1[nH]c(=O)n([C@@H]2O[C@H](CO)[C@@H](O)[C@H]2O)cc1F [FUR, 5-fluorouridine]

Compound: Lac-St: lactosylated streptavidin, molar substitution ratio 5:1
- non-hepatic values, fold lower than St or TNP-St ([1]; mouse, in vivo): 10-20 fold

Compound: streptavidin
- accumulation in the kidney ([1]; mouse, in vivo): 70-80%
- blood levels ([1]; mouse, in vivo): 22-33 %/g
- levels in other tissues, including the liver ([1]; mouse, in vivo): < 10 %/g
- % of the total injected dose accumulated in each kidney [5]: 15%
- levels in other organs [5]: 0.3-4 %/g
